Substitutions are numbered along the chain they refer to. Numbers in names are those of the source.
Key:
Format in all cases: biochemical, Prevotella bryantii
[1] = substrate: O=[N+]([O-])c1ccc(O[C@@H]2OC[C@@H](O)[C@H](O)[C@H]2O)cc1; test: Steady state kinetics of pNP substrate hydrolysis, Pb911 WT; conditions: other: Pb911 WT, pNP assay per Example 2 (sodium citrate, pH 5.5, 37° C.)
Description: (§1) Enzyme-catalyzed hydrolysis of para-nitrophenyl (pNP)-linked monosaccharide substrates was assayed using a thermostated Synergy II multi-mode microplate reader from BioTek Instruments Inc. (Winooski, Vt.). A library of pNP substrates were screened for activity including: pNP-α-L-arabinopyranoside, pNP-α-L-arabinofuranoside, pNP-β-D-fucopyranoside, pNP-α-L-fucopyranoside, pNP-α-D-galactopyranoside, pNP-β-D-galactopyranoside, pNP-α-D-glucopyranoside, pNP-β-D-glucopyranoside, pNP-β-D-maltopyranoside, pNP-α-D-maltopyranoside, pNP-α-D-mannopyranoside, pNP-β-D-mannopyranoside, pNP-α-L-rhamnopyranoside, pNP-β-D-xylopyranoside, pNP-β-D-cellobioside. The substrates (1 mM) in citrate buffer (100 μL; 50 mM sodium citrate, 150 mM NaCl, pH 5.5) were incubated at 37° C. in the presence or absence of Pb886 (0.2 μM) for 30 min, and the level of pNP release was determined by continuously monitoring the absorbance at 400 nm. The pathlength correction feature of the instrument was employed to convert the absorbance values recorded to correspond to a 1 cm pathlength. The extinction coefficient for pNP at pH 5.5 and a wavelength of 400 nm was measured as 0.673 mM^−1cm^−1.
(§2) FIG. 4c illustrates the kinetics of pNP substrate hydrolysis. The activity of Pb886 was verified with para-nitrophenyl derivatives of xylose and arabinose as indicated in the x-axes. These substrates are artificial substrates for the enzyme. Kinetic studies of Pb886 were performed using a thermostated Synergy II multi-mode microplate reader from BioTek Instruments Inc. (Winooski, Vt.). pNP-β-D-Xylopyranoside (0-46.25 mM) or pNP-α-L-arabinofuranoside (0-25 mM) were incubated in a citrate reaction buffer (100 μL; 50 mM sodium citrate, 150 mM NaCl, pH 5.5) at 37° C. in a 96-well flat bottom microtiter plate, and reactions were initiated by the addition of Pb886 (0.2 μM). Hydrolysis of pNP-β-D-xylopyranoside and pNP-α-L-arabinofuranoside were continuously monitored by recording the UV signal at 400 nm. Initial rate data were then plotted against the substrate concentration, and kinetic values were estimated by applying a nonlinear curve fit using GraphPad Prism v5.02 from GraphPad Software (San Diego, Calif.). The extinction coefficient for para-nitrophenol at pH 5.5 and a wavelength of 400 nm was measured as 0.673 mM^−1cm^−1.
(§3) Pb911 protein was expressed and purified according to the methods described in Example 1. […] The activity of Pb911 on pNP substrates was measured according to the methods described in Example 2.

[2] = substrate: O=[N+]([O-])c1ccc(O[C@@H]2O[C@H](CO)[C@@H](O)[C@H](O)[C@H]2O)cc1; test: as above; conditions: other: Pb911 WT, pNP assay per Example 2 (sodium citrate, pH 5.5, 37° C.)
Description: as §1, §2, §3

[3] = substrate: O=[N+]([O-])c1ccc(O[C@@H]2OC[C@@H](O)[C@H](O)[C@H]2O)cc1; test: Steady state kinetics of pNP substrate hydrolysis, Pb911 E115D; conditions: other: Pb911 E115D, pNP assay per Example 2 (sodium citrate, pH 5.5, 37° C.)
Description: as §1, §2, §3

[4] = substrate: O=[N+]([O-])c1ccc(O[C@@H]2O[C@H](CO)[C@@H](O)[C@H](O)[C@H]2O)cc1; test: as above; conditions: other: Pb911 E115D, pNP assay per Example 2 (sodium citrate, pH 5.5, 37° C.)
Description: as §1, §2, §3

[5] = substrate: O=[N+]([O-])c1ccc(O[C@@H]2OC[C@@H](O)[C@H](O)[C@H]2O)cc1; test: Steady state kinetics of pNP substrate hydrolysis, Pb911 E115A; conditions: other: Pb911 E115A, pNP assay per Example 2 (sodium citrate, pH 5.5, 37° C.)
Description: as §1, §2, §3

[6] = substrate: O=[N+]([O-])c1ccc(O[C@@H]2O[C@H](CO)[C@@H](O)[C@H](O)[C@H]2O)cc1; test: as above; conditions: other: Pb911 E115A, pNP assay per Example 2 (sodium citrate, pH 5.5, 37° C.)
Description: as §1, §2, §3

B1: Prevotella bryantii β-xylosidase/β-glucosidase Pb911 (alternatively named Pb2369), wild type, SEQ ID NO: 6 (Segatella baroniae B14) (protein)
chain: QTILINQQVDALYDRMSQEERINQLRSGYMDDLFDEQGNLDTVKCKELIPFGIGHFSQYASQKPLDANILRDRVAAVQDWLIHHTPNGIPALFHEEVLSGVNTKDATIYPQQIGQACSFNPELAERKTLQTGIDMRKMGGVLSLSPMVDVCRNPSFNRLEESYGEDGYLSAVMGTAFVKGLQQGDLTKGVGACSKHYLGYGGGGDAKEKEMMEEILLPHETMIRLAGSKALMPGYHAVHGTNCVANHEILTDILRGYLGFDGMVVSDYTAIDQIPGLDTPLQKATAAINAGNDVDFPHGANYKFLQEGLDKGMVKSEAFERAVKDVLRHKYRQGLFDKNAYLYSKDPIQLDSKEERQTAYDIATQSVVLLENKGILPLRGKQNIFVTGPNANTMWAMCGDYSFPAMTYFWKKVTEDLDHPHIVKLLEGMKDRKPAGINISYSRGCDWTDTIETKYAVSGDERAWEYEVLHRKVDSGEKADETEALAMAKEADVIIAAVGENVMLCGENRDRQGLCLPGHQEQYVERLLATGKPVVLVVFGGRAQVISNIANRCAAVIQAWYPGEEGGHAVADILYGNVSPSAKLSVSYPNVELNEPICYNYSAKQDSRVAWPFGYGLSYTTFDYSNLEVPTEVKTSDESLHIAFEVANTGKMDADEIAQVYLSPTQENQNIRPIQLQGFARISLKAGERKKVKVKLYTEQFGYYSNNGKRQWNIAPGTFTVKIGASSQDIKLQKNITVKGDIVVKPLRDFYFSEVIK
Km [1]: 8.4 ± 1 mM | kcat [1]: 250 ± 10 s⁻¹ | kcat/Km [1]: 30000 ± 4000 M⁻¹ s⁻¹ | Km [2]: 22 ± 1 mM | kcat [2]: 19 ± 0.6 s⁻¹ | kcat/Km [2]: 860 ± 50 M⁻¹ s⁻¹

B2: Prevotella bryantii β-xylosidase/β-glucosidase Pb911 (alternatively named Pb2369, wild type SEQ ID NO: 6) variant E115D (Segatella baroniae B14; E115D) (protein)
chain: B1 chain with E96D
Km [3]: 39 ± 4 mM | kcat [3]: 87 ± 5 s⁻¹ | kcat/Km [3]: 2200 ± 200 M⁻¹ s⁻¹ | Km [4]: 17 ± 1 mM | kcat [4]: 16 ± 0.4 s⁻¹ | kcat/Km [4]: 940 ± 60 M⁻¹ s⁻¹

B3: Prevotella bryantii β-xylosidase/β-glucosidase Pb911 (alternatively named Pb2369, wild type SEQ ID NO: 6) variant E115A (Segatella baroniae B14; E115A) (protein)
chain: B1 chain with E96A
Km [5]: 28 ± 3 mM | kcat [5]: 0.35 ± 0.02 s⁻¹ | kcat/Km [5]: 13 ± 2 M⁻¹ s⁻¹ | Km [6]: 39 ± 4 mM | kcat [6]: 0.087 ± 0.005 s⁻¹ | kcat/Km [6]: 2.2 ± 0.3 M⁻¹ s⁻¹

From US9012186B2, “Hemicellulose-degrading enzymes” (The Board of Trustees of the University of Illinois, priority 2009, dated 2015)
